Assay results from publication PMC12447900.

What was measured:
[1] = target: recombinant HA-tagged Vimentin (Vimentin-HA) (human) (UniProt P08670); experiment: ELISA; Vimentin-HA coated as ligand at 10 ug/ml in PBS on polystyrene wells; AP-MS candidate as analyte, 1 h at RT in PBS, 0.1 % BSA, 0.02 % Tween-20; detected by anti-SpyTag antibody; approximate Kd by one-site total saturation binding fit
[2] = target: EPHA2, recombinant ectodomain (human) (UniProt P29317); experiment: ELISA; AP-MS candidate coated as ligand at 10 ug/ml in PBS on polystyrene wells; Vimentin-HA as analyte, 30 min at RT in PBS, 0.1 % BSA, 0.02 % Tween-20; detected by anti-HA-tag antibody; approximate Kd by one-site total saturation binding fit
[3] = target: EPHB2, recombinant ectodomain (human) (UniProt P29323); experiment: as above
[4] = target: LRRC15, recombinant ectodomain (human) (UniProt Q8TF66); experiment: as above

TFRC, recombinant ectodomain (from UniProt P02786 89-760) (receptor)
Kd [1]: 119 nM

recombinant HA-tagged Vimentin (Vimentin-HA) (from UniProt P08670 1-466) (natural protein)
Kd [2]: 20.7 nM | Kd [3]: 65.3 nM | Kd [4]: 53.6 nM

DKK1, recombinant (from UniProt O94907 32-266) (ligand)
Kd [1]: 232 nM
